Laboratory results: US10538591B2, “Anti-fibulin-3 antibodies and uses thereof” (THE BRIGHAM AND WOMEN'S HOSPITAL, INC., priority 2014, dated 2020)
“Also recorded” adds a separate entry of the source.

Assays:
[1] = system: GBM34 glioblastoma stem cells; experiment: Intravenous injection in subcutaneous GBM34 xenografts, growth and overall survival; format: in vivo, Athymic mice
Experimental: Athymic mice received SQ bilateral implants of GBM34 glioblastoma stem cells (1×10^6 cells/50 μl). Tumors were allowed to grow until they reached a volume of 100 mm^3. Animals (N=5/group) were then injected with mAb428.2 (30 mg/kg) or non-immune mouse IgG1 every day, for a total of 8 days (total: 8 injections). Mice were monitored for tumor growth and sacrificed when any of their tumors reached a length >=20 mm. Long-term survivors (>40 days) in which length was not increasing above 20 mm were euthanized when tumors reached width >=15 mm or presented ulcerations. […] Curves for overall survival were compared by long-rank test

fibulin-5 = target: T1, fibulin-5 (Homo sapiens, UniProt Q9UBX5); experiment: Cross-reactivity against homologous fibulin-5; format: binding
T1 sequence (Q9UBX5 24-448): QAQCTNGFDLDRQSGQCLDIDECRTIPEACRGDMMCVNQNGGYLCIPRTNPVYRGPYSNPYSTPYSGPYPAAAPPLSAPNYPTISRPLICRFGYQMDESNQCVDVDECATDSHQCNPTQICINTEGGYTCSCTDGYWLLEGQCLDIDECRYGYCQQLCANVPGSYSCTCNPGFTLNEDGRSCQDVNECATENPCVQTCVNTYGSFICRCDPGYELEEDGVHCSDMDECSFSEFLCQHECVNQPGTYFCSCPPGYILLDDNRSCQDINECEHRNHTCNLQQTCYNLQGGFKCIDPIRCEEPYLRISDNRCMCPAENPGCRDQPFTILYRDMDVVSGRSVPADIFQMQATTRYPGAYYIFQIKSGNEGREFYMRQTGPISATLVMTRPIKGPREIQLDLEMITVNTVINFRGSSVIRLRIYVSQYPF

[2] = system: Notch signaling induced by fibulin-3; experiment: Notch reporter in ARPE19 retinal pigmented epithelial cells; format: cell-based, human; conditions: 100 μg/ml, 0, 2, 4, 6 and 24 h
Experimental: Cells were co-transfected with plasmids carrying fibulin-3 cDNA (Fib3 OE) or a control cDNA (Control) and incubated in serum-free conditions for 24 h (FIG. 18). The following day mAb428.3C11 (100 μg/ml) was added to the cultures and Notch (left panel) or NF-kB (right panel) signaling activities were measured after 0, 2, 4, 6, and 24 h. […] The inhibitory effect caused by the antibody on control reporter signaling (black dots) may have been caused by blocking of endogenous fibulin-3 that is highly expressed by ARPE19 cells.

[3] = system: NFkB signaling induced by fibulin-3; experiment: NF-kB luminescent reporter in U251 glioma cells transfected with fibulin-3 cDNA; format: cell-based; conditions: 100 μg/ml, 0, 2, 6 and 24 h
Experimental: Glioma cells (U251 line) were transfected with a luminescent reporter plasmid driven by NF-kB signaling (pGL4.32[luc2P/NF-κB-RE/Hygro], PROMEGA). Cells were co-transfected with plasmids carrying fibulin-3 cDNA (Fib3 OE) or a control cDNA (Control) and incubated in serum-free conditions for 24 h. The following day mAb428.2 (100 μg/ml) was added to the cultures and NFkB signaling activity was measured after 0, 2, 6, and 24 h.

normal adult human brain = experiment: Immunohistochemistry of normal adult human brain sections; conditions: anti-Fib3/911 10 μg/ml, mAb428.3C11 40 μg/ml, mAb3-5 5 μg/ml
Experimental: Frozen sections of human primary glioblastoma and normal adult human brain were fixed in ethanol/acetate buffer and processed for immunohistochemistry with the following anti-fibulin-3 antibodies: rabbit polyclonal anti-Fib3/911 (10 μg/ml), mouse monoclonal anti-fibulin-3 mAb428.3C11 (40 μg/ml), and a commercial mouse monoclonal antibody against human fibulin-3 (mAb3-5, 5 μg/ml, Santa Cruz Biotechnology). […] Both in-house generated antibodies show stronger staining in the tumor parenchyma compared to the commercial antibody. In all cases, staining is particularly intense around tumor blood vessels. […] Sections were counterstained to identify endothelial markers and cell nuclei by staining with anti-CD31 and DAPI respectively. (Data not shown).

fibulin-4 = target: T2, fibulin-4 (Homo sapiens, UniProt O95967); experiment: Cross-reactivity against homologous fibulin-4; format: binding
T2 sequence (O95967 24-443): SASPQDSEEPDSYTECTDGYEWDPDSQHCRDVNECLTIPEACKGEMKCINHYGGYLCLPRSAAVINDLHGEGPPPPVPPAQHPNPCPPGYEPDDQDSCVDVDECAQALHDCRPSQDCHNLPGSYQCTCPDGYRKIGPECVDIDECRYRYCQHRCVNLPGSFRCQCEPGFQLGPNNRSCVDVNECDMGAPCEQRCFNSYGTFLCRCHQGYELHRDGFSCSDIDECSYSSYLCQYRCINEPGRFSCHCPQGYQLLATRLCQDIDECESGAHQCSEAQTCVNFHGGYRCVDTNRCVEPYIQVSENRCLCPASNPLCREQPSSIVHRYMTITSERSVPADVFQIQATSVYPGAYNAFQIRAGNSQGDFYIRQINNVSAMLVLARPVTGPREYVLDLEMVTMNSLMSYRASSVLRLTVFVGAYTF

[4] = mouse, in vivo

B1: mAb428.2: mouse monoclonal IgG1 kappa antibody against human fibulin-3 peptide SEQ ID NO:2; VH SEQ ID NO: 3, VL SEQ ID NO: 4 (antibody, V domains shown)
VH: QIQLVQSGPELKKPGETVKISCKASGYSFTTYGMSWVKQAPGKGLKWMGWINTYSGVPTYADDFKGRFAFFLETSASTAYLQINNLKNEDTATYFCARWVDYWGQGTTLTVSS
VL: DIKMTQSPSSMYASLGERVTITCKASQDIKSYLSWHQQKPWKSPKTLIYYATSLADGVPSRFSGSGSGQDYSLTISSLESDDTATYYCLQHGKSPYTFGGGTKLEIK
overall survival compared to control IgG1 ([1]; 30 mg/kg IV every day, 8 injections): extended overall survival two-fold; also recorded: significant prolongation of overall survival | tumor growth ([1]; IV 8×30 mg/kg): significant delay in tumor growth | cross-reactivity against fibulin-5 (fibulin-5): no cross-reactivity | effect on fibulin-3-induced Notch reporter activity [2]: strong blocking effect | effect on fibulin-3-induced NFkB signaling [3]: blocking of this effect | staining in normal brain (normal adult human brain): without cross-reactivity against normal brain | staining in normal brain (normal adult human brain; listed as mAb428.3C11): complete absence of staining in normal tissue | cross-reactivity against fibulin-4 (fibulin-4): no cross-reactivity | accumulation in skin or connective tissues [4]: did not accumulate in these tissues | amount detected through the skull [4]: very small but higher than the amount of a control IgG1 antibody | detection in intracranial tumors [4]: not detected in significant amounts | detection in subcutaneous tumors ([4]; 2.5 mg/kg): still detectable with high intensity of fluorescence | time of accumulation in the liver ([4]; 2.5 mg/kg): >= 6 | time of accumulation of fluorescence in the bladder ([4]; 2.5 mg/kg): 2 h | time of clearance from bladder and liver ([4]; 2.5 mg/kg): >= 24 h
